Laboratory results reported in patent publication US20240279312A1 (Hoffmann-La Roche, published 2024).
“And” between values parts separate entries of the source, which are not always exact repeats. Identical values can stand only once.

Legend:
[1] = target: recombinant von Willebrand Factor A1 domain (amino acids 1277-1453 of human vWF) (human) (UniProt P04275); experiment: fluorescence anisotropy; particle-bound dimeric polypeptide titrated against 150 nM vWF A1-AlexaFluor 488
[2] = target: recombinant von Willebrand Factor A1 domain (amino acids 1277-1453 of human vWF) (human) (UniProt P04275); experiment: SPR (Biacore); vWF A1 domain on CM5 chip, soluble polypeptide; Kd from on- and off-rates; SPR (Biacore), vWF A1 domain on CM5 chip
[3] = target: T1, human von Willebrand Factor of human blood plasma (human, UniProt P04275 764-2813); experiment: sandwich ELISA: polypeptide captured on anti-CD42b, plasma added, detection with polyclonal rabbit anti-human vWF-HRP
T1 construct: mature; Native plasma protein in ELISA samples; also called vWF; plasma vWF
T1 sequence (P04275 764-2813 limits assumed): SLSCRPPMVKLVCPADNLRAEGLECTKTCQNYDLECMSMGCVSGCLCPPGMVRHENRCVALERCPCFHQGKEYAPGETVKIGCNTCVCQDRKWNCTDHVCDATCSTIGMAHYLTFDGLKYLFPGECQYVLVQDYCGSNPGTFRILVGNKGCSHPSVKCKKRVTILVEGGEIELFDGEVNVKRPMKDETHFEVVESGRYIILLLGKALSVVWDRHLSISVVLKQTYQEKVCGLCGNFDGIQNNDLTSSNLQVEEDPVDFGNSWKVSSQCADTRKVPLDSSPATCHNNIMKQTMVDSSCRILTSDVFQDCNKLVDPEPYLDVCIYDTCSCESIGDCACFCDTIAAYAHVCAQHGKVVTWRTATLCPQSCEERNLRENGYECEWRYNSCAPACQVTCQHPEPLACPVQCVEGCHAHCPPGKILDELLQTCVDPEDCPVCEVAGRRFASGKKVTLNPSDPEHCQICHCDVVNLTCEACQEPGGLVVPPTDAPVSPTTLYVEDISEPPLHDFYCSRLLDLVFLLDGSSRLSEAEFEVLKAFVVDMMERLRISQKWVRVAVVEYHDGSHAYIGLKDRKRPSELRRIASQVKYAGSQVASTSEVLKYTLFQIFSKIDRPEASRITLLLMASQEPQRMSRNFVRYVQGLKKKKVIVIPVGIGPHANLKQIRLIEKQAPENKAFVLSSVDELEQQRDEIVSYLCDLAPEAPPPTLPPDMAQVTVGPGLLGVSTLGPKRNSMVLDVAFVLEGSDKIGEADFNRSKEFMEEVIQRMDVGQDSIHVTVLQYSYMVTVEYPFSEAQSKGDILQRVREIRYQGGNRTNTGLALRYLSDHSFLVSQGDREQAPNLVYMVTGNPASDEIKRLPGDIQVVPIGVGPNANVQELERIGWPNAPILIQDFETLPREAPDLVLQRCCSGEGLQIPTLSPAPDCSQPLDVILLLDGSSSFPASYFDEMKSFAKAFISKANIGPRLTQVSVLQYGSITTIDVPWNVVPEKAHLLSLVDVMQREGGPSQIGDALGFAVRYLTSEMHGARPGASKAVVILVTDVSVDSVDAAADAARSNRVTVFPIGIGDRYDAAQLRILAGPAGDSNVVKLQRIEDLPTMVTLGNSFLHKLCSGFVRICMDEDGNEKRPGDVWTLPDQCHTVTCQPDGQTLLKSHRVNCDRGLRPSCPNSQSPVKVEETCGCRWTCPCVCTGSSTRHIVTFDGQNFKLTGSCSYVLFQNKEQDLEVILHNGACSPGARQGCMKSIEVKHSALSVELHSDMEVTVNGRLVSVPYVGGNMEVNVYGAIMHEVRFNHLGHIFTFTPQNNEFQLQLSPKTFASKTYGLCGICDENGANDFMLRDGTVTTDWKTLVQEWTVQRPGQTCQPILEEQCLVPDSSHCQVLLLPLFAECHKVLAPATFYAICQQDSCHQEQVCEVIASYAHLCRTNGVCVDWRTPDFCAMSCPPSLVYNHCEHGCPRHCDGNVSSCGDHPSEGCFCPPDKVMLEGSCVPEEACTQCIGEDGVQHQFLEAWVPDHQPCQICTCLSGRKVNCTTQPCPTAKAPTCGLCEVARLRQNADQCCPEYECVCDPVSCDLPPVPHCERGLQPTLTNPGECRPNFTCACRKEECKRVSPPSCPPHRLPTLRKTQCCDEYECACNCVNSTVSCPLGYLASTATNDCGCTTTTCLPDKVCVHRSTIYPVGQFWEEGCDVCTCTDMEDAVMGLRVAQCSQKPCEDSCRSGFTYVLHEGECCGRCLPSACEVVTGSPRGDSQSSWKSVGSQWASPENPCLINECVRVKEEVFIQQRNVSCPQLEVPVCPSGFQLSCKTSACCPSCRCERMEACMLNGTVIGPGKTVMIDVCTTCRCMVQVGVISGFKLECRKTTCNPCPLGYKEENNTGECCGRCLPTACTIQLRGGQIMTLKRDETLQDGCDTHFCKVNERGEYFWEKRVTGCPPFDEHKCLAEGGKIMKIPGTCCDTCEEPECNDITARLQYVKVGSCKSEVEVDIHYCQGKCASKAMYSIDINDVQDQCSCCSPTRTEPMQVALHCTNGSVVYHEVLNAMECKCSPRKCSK
From the text: FIG. 4A is a cartoon of the enzyme-linked immunosorbent assay (ELISA) used to generate the data in FIG. 4B-4D. A solid support was coated with anti-glycoprotein Ibα antibody (anti-CD42b), which was used to immobilize recombinant polypeptide comprising a modified extracellular domain of platelet glycoprotein Ibα (CD42b; GPIbα; GP1b constructs). The solid support was then contacted with human blood plasma, von Willebrand Factor calibrators, or von Willebrand Factor controls. The solid support was then contacted with a polyclonal rabbit anti-human von Willebrand Factor antibody to which horseradish peroxidase (HRP) was conjugated. The composition was then contacted with a substrate capable of being converted into a product by HRP with a strong absorbance at 450 nm, and absorbance was measured.
Enzyme immunosorbent assays (ELISA) were used to determine that recombinant polypeptides comprising the G233T (SEQ ID NO: 21), D235V (SEQ ID NO: 30), and K237V (SEQ ID NO: 31) mutations are capable of detecting qualitative differences in vWF binding affinity. […] Briefly, the wells of a multi-well plate were coated with an anti-CD42b antibody, which specifically binds the modified extracellular domain of GPIbα of the recombinant polypeptides and was used to indirectly cross-link the recombinant polypeptides to the multi-well plate (i.e., the solid support). Various control samples, standards, and serial dilutions thereof were added to different wells of the multi-well plate including plasma samples associated with type 1, type 2B, and type 3 von Willebrand Disease, control samples of pooled human blood plasma, control samples of human blood plasma known not to have von Willebrand Disease, a 2× serial dilution of a reference standard of pooled human plasma from no dilution to 16-fold dilution, and goat blood serum as a negative control. […] Bound vWF was quantified by monitoring the conversion of a horseradish peroxidase substrate into product by absorption spectroscopy at 450 nm.

Sequence of recombinant von Willebrand Factor A1 domain (amino acids 1277-1453 of human vWF) (human) (P04275 1277-1453 limits assumed, form in doubt): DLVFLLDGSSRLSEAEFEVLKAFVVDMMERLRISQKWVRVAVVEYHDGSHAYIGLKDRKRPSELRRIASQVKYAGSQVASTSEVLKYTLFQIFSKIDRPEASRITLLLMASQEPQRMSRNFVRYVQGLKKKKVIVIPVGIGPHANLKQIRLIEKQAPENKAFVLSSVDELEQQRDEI

Row | Kd [1] | Kd [2] | binding result [3] | Molecule
1 | 1250 nM |  |  | dimeric polypeptide of SEQ ID NO: 37 (WT): GPIbα extracellular domain without gain- or loss-of-function mutation, murine Fc dimerization domain (Fc fusion)
2 | 67 nM and < 500 nM | 58 nM | binds | dimeric polypeptide of SEQ ID NO: 21: GPIbα extracellular domain with C65S and G233T, murine IgG1 Fc dimerization domain, 8-His tag (Fc fusion, On particles in fluorescence anisotropy, soluble in SPR, captured by anti-CD42b in ELISA; also called G233T mutant; G233T recombinant polypeptide) HPICEVSKVASHLEVNCDKRNLTALPPDLPKDTTILHLSENLLYTFSLATLMPYTRLTQLNLDRSELTKLQVDGTLPVLGTLDLSHNQLQSLPLLGQTLPALTVLDVSFNRLTSLPLGALRGLGELQELYLKGNELKTLPPGLLTPTPKLEKLSLANNNLTELPAGLLNGLENLDTLLLQENSLYTIPKGFFGSHLLPFAFLHGNPWLCNCEILYFRRWLQDNAENVYVWKQTVDVKAMTSNVASVQCDNSDKFPVYKYPGKGCPTLGDEGDTDLYDYYPEEDTEGDKVRVPRDCGCKPCICTVPEVSSVFIFPPKPKDVLTITLTPKVTCVVVDISKDDPEVQFSWFVDDVEVHTAQTQPREEQFNSTFRSVSELPIMHQDWLNGKEFKCRVNSAAFPAPIEKTISKTKGRPKAPQVYTIPPPKEQMAKDKVSLTCMITDFFPEDITVEWQWNGQPAENYKNTQPIMDTDGSYFVYSKLNVQKSNWEAGNTFTCSVLHEGLHNHHTEKSLSHSPGIGHHHHHHHH
3 | < 500 nM and 250 nM |  | binds | dimeric polypeptide of SEQ ID NO: 30: GPIbα extracellular domain with C65S and D235V, murine Fc dimerization domain (Fc fusion, also called D235V mutant) HPICEVSKVASHLEVNCDKRNLTALPPDLPKDTTILHLSENLLYTFSLATLMPYTRLTQLNLDRSELTKLQVDGTLPVLGTLDLSHNQLQSLPLLGQTLPALTVLDVSFNRLTSLPLGALRGLGELQELYLKGNELKTLPPGLLTPTPKLEKLSLANNNLTELPAGLLNGLENLDTLLLQENSLYTIPKGFFGSHLLPFAFLHGNPWLCNCEILYFRRWLQDNAENVYVWKQGVVVKAMTSNVASVQCDNSDKFPVYKYPGKGCPTLGDEGDTDLYDYYPEEDTEGDKVRVPRDCGCKPCICTVPEVSSVFIFPPKPKDVLTITLTPKVTCVVVDISKDDPEVQFSWFVDDVEVHTAQTQPREEQFNSTFRSVSELPIMHQDWLNGKEFKCRVNSAAFPAPIEKTISKTKGRPKAPQVYTIPPPKEQMAKDKVSLTCMITDFFPEDITVEWQWNGQPAENYKNTQPIMDTDGSYFVYSKLNVQKSNWEAGNTFTCSVLHEGLHNHHTEKSLSHSPGIGHHHHHHHH
4 | < 500 nM and 300 nM |  | binds | dimeric polypeptide of SEQ ID NO: 31: GPIbα extracellular domain with C65S and K237V, murine Fc dimerization domain (Fc fusion, also called K237V mutant) HPICEVSKVASHLEVNCDKRNLTALPPDLPKDTTILHLSENLLYTFSLATLMPYTRLTQLNLDRSELTKLQVDGTLPVLGTLDLSHNQLQSLPLLGQTLPALTVLDVSFNRLTSLPLGALRGLGELQELYLKGNELKTLPPGLLTPTPKLEKLSLANNNLTELPAGLLNGLENLDTLLLQENSLYTIPKGFFGSHLLPFAFLHGNPWLCNCEILYFRRWLQDNAENVYVWKQGVDVVAMTSNVASVQCDNSDKFPVYKYPGKGCPTLGDEGDTDLYDYYPEEDTEGDKVRVPRDCGCKPCICTVPEVSSVFIFPPKPKDVLTITLTPKVTCVVVDISKDDPEVQFSWFVDDVEVHTAQTQPREEQFNSTFRSVSELPIMHQDWLNGKEFKCRVNSAAFPAPIEKTISKTKGRPKAPQVYTIPPPKEQMAKDKVSLTCMITDFFPEDITVEWQWNGQPAENYKNTQPIMDTDGSYFVYSKLNVQKSNWEAGNTFTCSVLHEGLHNHHTEKSLSHSPGIGHHHHHHHH
